Measurements reported in publication PMC3223026 (Journal of molecular biology, 2011).
Like-named read-outs stand apart in the source and are kept apart here.

B1: bacteriophage φ6 protein P1 (capsid shell), wild type (natural protein, UniProt P11126 1-769, looked up)
chain: MFNLKVKDLNGSARGLTQAFAIGELKNQLSVGALQLPLQFTRTFSASMTSELLWEVGKGNIDPVMYARLFFQYAQAGGALSVDELVNQFTEYHQSTACNPEIWRKLTAYITGSSNRAIKADAVGKVPPTAILEQLRTLAPSEHELFHHITTDFVCHVLSPLGFILPDAAYVYRVGRTATYPNFYALVDCVRASDLRRMLTALSSVDSKMLQATFKAKGALAPALISQHLANAATTAFERSRGNFDANAVVSSVLTILGRLWSPSTPKELDPSARLRNTNGIDQLRSNLALFIAYQDMVKQRGRAEVIFSDEELSSTIIPWFIEAMSEVSPFKLRPINETTSYIGQTSAIDHMGQPSHVVVYEDWQFAKEITAFTPVKLANNSNQRFLDVEPGISDRMSATLAPIGNTFAVSAFVKNRTAVYEAVSQRGTVNSNGAEMTLGFPSVVERDYALDRDPMVAIAALRTGIVDESLEARASNDLKRSMFNYYAAVMHYAVAHNPEVVVSEHQGVAAEQGSLYLVWNVRTELRIPVGYNAIEGGSIRTPEPLEAIAYNKPIQPSEVLQAKVLDLANHTTSIHIWPWHEASTEFAYEDAYSVTIRNKRYTAEVKEFELLGLGQRRERVRILKPTVAHAIIQMWYSWFVEDDRTLAAARRTSRDDAEKLAIDGRRMQNAVTLLRKIEMIGTTGIGASAVHLAQSRIVDQMAGRGLIDDSSDLHVGINRHRIRIWAGLAVLQMMGLLSRSEAEALTKVLGDSNALGMVVATTDIDPSL
B2: bacteriophage φ6 protein P1 with the E390A substitution (natural protein, UniProt P11126 1-769, looked up)
chain: MFNLKVKDLNGSARGLTQAFAIGELKNQLSVGALQLPLQFTRTFSASMTSELLWEVGKGNIDPVMYARLFFQYAQAGGALSVDELVNQFTEYHQSTACNPEIWRKLTAYITGSSNRAIKADAVGKVPPTAILEQLRTLAPSEHELFHHITTDFVCHVLSPLGFILPDAAYVYRVGRTATYPNFYALVDCVRASDLRRMLTALSSVDSKMLQATFKAKGALAPALISQHLANAATTAFERSRGNFDANAVVSSVLTILGRLWSPSTPKELDPSARLRNTNGIDQLRSNLALFIAYQDMVKQRGRAEVIFSDEELSSTIIPWFIEAMSEVSPFKLRPINETTSYIGQTSAIDHMGQPSHVVVYEDWQFAKEITAFTPVKLANNSNQRFLDVAPGISDRMSATLAPIGNTFAVSAFVKNRTAVYEAVSQRGTVNSNGAEMTLGFPSVVERDYALDRDPMVAIAALRTGIVDESLEARASNDLKRSMFNYYAAVMHYAVAHNPEVVVSEHQGVAAEQGSLYLVWNVRTELRIPVGYNAIEGGSIRTPEPLEAIAYNKPIQPSEVLQAKVLDLANHTTSIHIWPWHEASTEFAYEDAYSVTIRNKRYTAEVKEFELLGLGQRRERVRILKPTVAHAIIQMWYSWFVEDDRTLAAARRTSRDDAEKLAIDGRRMQNAVTLLRKIEMIGTTGIGASAVHLAQSRIVDQMAGRGLIDDSSDLHVGINRHRIRIWAGLAVLQMMGLLSRSEAEALTKVLGDSNALGMVVATTDIDPSL

Tests used:
Assay in all cases: cryo-EM structure
cryo-EM structure [1] = biological target: the molecule itself
[2] = biological target: B1
[3] = biological target: B2
cryo-EM structure [4] = biological target: the molecule itself; remark: listed apart in the source

| Binder | binding result (cryo-EM structure [1]) | binding result [2] | binding result [3] | binding result (cryo-EM structure [4]) |
| --- | --- | --- | --- | --- |
| bacteriophage φ6 protein P4 (packaging motor, packaging NTPase) (enzyme, UniProt P11125 1-332, looked up) MPIVVTQAHIDRVGIAADLLDASPVSLQVLGRPTAINTVVIKTYIAAVMELASKQGGSLAGVDIRPSVLLKDTAIFTKPKAKSADVESDVDVLDTGIYSVPGLARKPVTHRWPSEGIYSGVTALMGATGSGKSITLNEKLRPDVLIRWGEVAEAYDELDTAVHISTLDEMLIVCIGLGALGFNVAVDSVRPLLFRLKGAASAGGIVAVFYSLLTDISNLFTQYDCSVVMVVNPMVDAEKIEYVFGQVMASTVGAILCADGNVSRTMFRTNKGRIFNGAAPLAADTHMPSMDRPTSMKALDHTSIASVAPLERGSVDTDDRNSAPRRGANFSL | binds | binds | binds |  |
| B1 | binds |  |  |  |
| B2 |  |  |  | binds |
| bacteriophage φ6 protein P2 (RNA-dependent RNA polymerase) (enzyme, UniProt P11124 1-665, looked up) MPRRAPAFPLSDIKAQMLFANNIKAQQASKRSFKEGAIETYEGLLSVDPRFLSFKNELSRYLTDHFPANVDEYGRVYGNGVRTNFFGMRHMNGFPMIPATWPLASNLKKRADADLADGPVSERDNLLFRAAVRLMFSDLEPVPLKIRKGSSTCIPYFSNDMGTKIEIAERALEKAEEAGNLMLQGKFDDAYQLHQMGGAYYVVYRAQSTDAITLDPKTGKFVSKDRMVADFEYAVTGGEQGSLFAASKDASRLKEQYGIDVPDGFFCERRRTAMGGPFALNAPIMAVAQPVRNKIYSKYAYTFHHTTRLNKEEKVKEWSLCVATDVSDHDTFWPGWLRDLICDELLNMGYAPWWVKLFETSLKLPVYVGAPAPEQGHTLLGDPSNPDLEVGLSSGQGATDLMGTLLMSITYLVMQLDHTAPHLNSRIKDMPSACRFLDSYWQGHEEIRQISKSDDAILGWTKGRALVGGHRLFEMLKEGKVNPSPYMKISYEHGGAFLGDILLYDSRREPGSAIFVGNINSMLNNQFSPEYGVQSGVRDRSKRKRPFPGLAWASMKDTYGACPIYSDVLEAIERCWWNAFGESYRAYREDMLKRDTLELSRYVASMARQAGLAELTPIDLEVLADPNKLQYKWTEADVSANIHEVLMHGVSVEKTERFLRSVMPR |  |  | binds |  |
